Measured values taken from patent US20150290329A1.

Key:
8-arm-PEG-P2 (20 kDa) = assay: cell-based or functional assay
8-arm-PEG-P1 (40 kDa) = assay: cell-based or functional assay

Chain of 8-arm-PEG-P2 (20 kDa) (peptide, as listed by the source): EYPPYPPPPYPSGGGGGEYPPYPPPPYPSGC

“C7 recombinant protein polymer (seven repeats of the CC43 WW domain) (designed binder)” was tested, and the storage modulus G′ of the hydrogel 8P2-20k (8-arm-PEG-P2 (20 kDa)) was 15 Pa and the storage modulus G′ of the hydrogel 8P1-40k (8-arm-PEG-P1 (40 kDa)) was 3.9 Pa.
